According to paper PMC2928128 (Human Molecular Genetics, 2010):

T1: harmonin-a Nter domain (residues 1-79) (UniProt Q9ES64 1-79)
T1 sequence (looked up): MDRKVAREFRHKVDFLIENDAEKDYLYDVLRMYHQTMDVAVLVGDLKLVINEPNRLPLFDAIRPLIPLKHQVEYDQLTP

T2: harmonin-a Nter-PDZ1-PDZ2 fragment (residues 1-299) (UniProt Q9ES64 1-299)
T2 sequence (looked up): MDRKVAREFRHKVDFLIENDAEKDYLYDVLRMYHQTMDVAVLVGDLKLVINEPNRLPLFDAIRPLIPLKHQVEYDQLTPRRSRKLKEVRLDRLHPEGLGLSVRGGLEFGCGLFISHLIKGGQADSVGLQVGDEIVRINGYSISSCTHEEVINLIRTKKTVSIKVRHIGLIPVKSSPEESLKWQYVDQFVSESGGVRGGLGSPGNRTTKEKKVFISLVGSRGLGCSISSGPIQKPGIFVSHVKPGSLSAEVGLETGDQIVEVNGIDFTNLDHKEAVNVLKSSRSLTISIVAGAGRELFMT

T3: harmonin-a Nter-PDZ1 fragment (residues 1-203) (UniProt Q9ES64 1-203)
T3 sequence (looked up): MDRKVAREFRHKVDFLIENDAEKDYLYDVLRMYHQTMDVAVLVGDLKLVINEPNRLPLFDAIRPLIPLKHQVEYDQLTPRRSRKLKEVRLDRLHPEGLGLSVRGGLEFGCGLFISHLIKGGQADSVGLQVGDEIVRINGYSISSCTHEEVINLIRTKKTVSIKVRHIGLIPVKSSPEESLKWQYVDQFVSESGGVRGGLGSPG

B1: GST-CDH23 + exon68 (cytoplasmic region of cadherin-23 including the exon68-encoded sequence, residues 847-1114) (domain or fragment)
chain: NWYYRTVHKRKLKAIVAGSAGNRGFIDIMDMPNTNKYSFDGANPVWLDPFCRNLELAAQAEHEDDLPENLSEIADLWNSPTRTHGTFGREPAAVKPDDDRYLRAAIQEYDNIAKLGQIIREGPIKGSLLKVVLEDYLRLKKLFAQRMVQKASSCHSSISELIQTELDEEPGDHSPGQGSLRFRHKPPVELKGPDGIHVVHGSTGTLLATDLNSLPEEDQKGLGRSLETLTAAEATAFERNARTESAKSTPLHKLRDVIMETPLEITEL
B2: GST-CDH23Δexon68 (cytoplasmic region of cadherin-23 lacking the exon68-encoded sequence, residues 847-1079) (domain or fragment)
chain: NWYYRTVHKRKLKAIVAGSAGNRGFIDIMDMPNTNKYSFDGANPVWLDPFCRNLELAAQAEHEDDLPENLSEIADLWNSPTRTHGTFGREPAAVKPDDDRYLRAAIQEYDNIAKLGQIIREGPIKLIQTELDEEPGDHSPGQGSLRFRHKPPVELKGPDGIHVVHGSTGTLLATDLNSLPEEDQKGLGRSLETLTAAEATAFERNARTESAKSTPLHKLRDVIMETPLEITEL
B3: GST-CDH23 + exon68ΔITEL (residues 847-1110) (domain or fragment)
chain: NWYYRTVHKRKLKAIVAGSAGNRGFIDIMDMPNTNKYSFDGANPVWLDPFCRNLELAAQAEHEDDLPENLSEIADLWNSPTRTHGTFGREPAAVKPDDDRYLRAAIQEYDNIAKLGQIIREGPIKGSLLKVVLEDYLRLKKLFAQRMVQKASSCHSSISELIQTELDEEPGDHSPGQGSLRFRHKPPVELKGPDGIHVVHGSTGTLLATDLNSLPEEDQKGLGRSLETLTAAEATAFERNARTESAKSTPLHKLRDVIMETPLE

Legend:
Test in all cases: SPR
[1] = biological target: T1, harmonin-a Nter domain (residues 1-79)
[2] = biological target: T2, harmonin-a Nter-PDZ1-PDZ2 fragment …
[3] = biological target: T3, harmonin-a Nter-PDZ1 fragment (residues …)
[4] = biological target: B2
[5] = biological target: B3
[6] = biological target: B1
[7] = biological target: GST-CDH23Δexon68ΔITEL (residues 847-1075)

Kd [1] [nM] | Kd [2] [nM] | Kd [3] [nM] | Kd [4] [nM] | Kd [5] [nM] | Kd [6] [nM] | Kd [7] [nM] | Binder
> 5000 | 64 ± 6 | 94 ± 8 |  |  |  |  | B1
> 5000 | 42 ± 11 | 79 ± 10 |  |  |  |  | B2
> 5000 | 66 ± 13 | 106 ± 5 |  |  |  |  | B3
 |  |  | 79 ± 11 | 127 ± 12 | 97 ± 14 | 48 ± 6 | full-length harmonin-a (natural protein) MDRKVAREFRHKVDFLIENDAEKDYLYDVLRMYHQTMDVAVLVGDLKLVINEPNRLPLFDAIRPLIPLKHQVEYDQLTPRRSRKLKEVRLDRLHPEGLGLSVRGGLEFGCGLFISHLIKGGQADSVGLQVGDEIVRINGYSISSCTHEEVINLIRTKKTVSIKVRHIGLIPVKSSPEESLKWQYVDQFVSESGGVRGGLGSPGNRTTKEKKVFISLVGSRGLGCSISSGPIQKPGIFVSHVKPGSLSAEVGLETGDQIVEVNGIDFTNLDHKEAVNVLKSSRSLTISIVAGAGRELFMTDRERLEEARQRELQRQELLMQKRLAMESNKILQEQQEMERQRRKEIAQKAAEENERYRKEMEQISEEEEKFKKQWEEDWGSKEQLILPKTITAEVHPVPLRKPKYDQGVEPADHLDGSTEEQRQQDFRKYEEGFDPYSMFSPEQIAGKDVRLLRIKKEGSLDLALEGGVDSPVGKVVVSAVYEGGAAERHGGVVKGDEIMAINGKIVTDYTLAEAEAALQKAWNQGGDWIDLVVAVCPPKEYDDEL
